Reference: PMC3663649, “Nucleosomal DNA binding drives the recognition of H3K36-methylated nucleosomes by the PSIP1-PWWP domain” (Epigenetics & Chromatin, 2013)
Read-outs that look alike come from different tables or passages of the source.

Experiments:
GST-PSIP1-PWWP (human) = assay: EMSA; settings: histone H3KC36me3 (methyl-lysine analogue); EMSA: 0.2X TBE, 4 C, 1.5 or 3 pmol nucleosome in 8 uL, up to 3 molar equivalents of protein, native 5% gel; NMR: 293 K (DNA titration), 308 K (nucleosome …)
PSIP1-PWWP (human) [1] = assay: NMR methyl-TROSY line shape fit; settings: 308 K; 1:2 nucleosome:PWWP model; koff 500 s-1; histone H3KC36me3 (methyl-lysine analogue); EMSA: 0.2X TBE, 4 C, 1.5 or 3 pmol nucleosome in 8 uL, up to 3 molar equivalents of protein, native 5% gel; NMR: 293 K (DNA titration), 308 K (nucleosome …)
[2] = target: H3KC36me3 nucleosomes (recombinant MLA nucleosomes reconstituted on 601 DNA) (Drosophila) (UniProt P02299)
PSIP1-PWWP (human) [3] = assay: NMR titration (1H-15N HSQC CSP); settings: EMSA: 0.2X TBE, 4 C, 1.5 or 3 pmol nucleosome in 8 uL, up to 3 molar equivalents of protein, native 5% gel; NMR: 293 K (DNA titration), 308 K (nucleosome …)
[4] = target: PSIP1-PWWP domain (residues 3 to 100, GST removed by thrombin) (human) (UniProt O75475); assay: NMR titration; 1H-15N HSQC of 0.3 mM PWWP, peptide added; 20 mM NaPi pH 7.0, 100 mM NaCl, 293 K, 600 MHz; chemical shift perturbation curves fitted in fast exchange
[5] = target: H3KC36me3 nucleosomes (recombinant MLA nucleosomes reconstituted on 601 DNA) (Drosophila) (UniProt P02299); assay: native gel or EMSA; 1.5 or 3 pmol reconstituted nucleosome with 0, 0.5, 1, 2 and 3 molar equivalents of glutathione agarose purified GST-PWWP protein; 0.2X TBE, 4°C, native 5% gel, ethidium bromide; band densities fitted to a 2:1 model

PSIP1-PWWP domain (residues 3 to 100, GST removed by thrombin) (human), sequence (O75475 3-100): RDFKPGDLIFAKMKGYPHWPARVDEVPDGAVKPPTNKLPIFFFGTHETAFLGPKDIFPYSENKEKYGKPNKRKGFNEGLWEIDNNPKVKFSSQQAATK
PSIP1-PWWP domain (residues 3 to 100, GST removed by thrombin), sequence (O75475 3-100): as above
GST-PWWP (PSIP1-PWWP domain, residues 3 to 100, GST fusion), sequence (O75475 3-100): as above

With H3KC36me3 MLA nucleosome on 601 DNA the Kd (GST-PSIP1-PWWP (human)) was 0.5 µM and the Kd (PSIP1-PWWP (human) [1]) was 1.5 µM.
“PSIP1-PWWP domain (residues 3 to 100, GST removed by thrombin) (from UniProt O75475 3-100) (domain or fragment)” was tested, and the Kd [2] was 1.5 µM.
In the case of SRE-DNA dsDNA fragment, the Kd (PSIP1-PWWP (human) [3]) is reported as 150 µM.
H3KC36me3 peptide (NMR titration) gave a Kd [4] of 11000 µM.
In the case of “GST-PWWP (PSIP1-PWWP domain, residues 3 to 100, GST fusion) (from UniProt O75475 3-100) (domain or fragment)”, the Kd [5] is reported as 0.5 µM.
